Assay results published in paper PMC10397247.

Key:
P2-AA-1HGe-R = molecular target: T1, P2-AA-1HGe-R; experiment: two-hybrid library CCmax; conditions: mean of both orientations;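 further: natural log of median RNA to DNA barcode read ratio; higher means stronger binding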
T1 chain: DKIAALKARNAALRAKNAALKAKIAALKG

P2-AA-1HGe-Q = molecular target: T2, P2-AA-1HGe-Q; experiment: two-hybrid library CCmax; conditions: mean of both orientations;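 further: natural log of median RNA to DNA barcode read ratio; higher means stronger binding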
T2 chain: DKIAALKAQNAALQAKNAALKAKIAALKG

P2-AA-1HGe-D = molecular target: T3, P2-AA-1HGe-D; experiment: two-hybrid library CCmax; conditions: mean of both orientations;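 further: natural log of median RNA to DNA barcode read ratio; higher means stronger binding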
T3 chain: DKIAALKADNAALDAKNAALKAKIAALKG

P2-AA-1HGe-A = molecular target: T4, P2-AA-1HGe-A; experiment: two-hybrid library CCmax; conditions: mean of both orientations;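 further: natural log of median RNA to DNA barcode read ratio; higher means stronger binding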
T4 chain: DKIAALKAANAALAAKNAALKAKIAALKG

P2-AA-1HGe-T = molecular target: T5, P2-AA-1HGe-T; experiment: two-hybrid library CCmax; conditions: mean of both orientations
T5 chain: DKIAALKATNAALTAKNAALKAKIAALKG

P2-AA-1HGe-M = molecular target: T6, P2-AA-1HGe-M; experiment: two-hybrid library CCmax; conditions: mean of both orientations
T6 chain: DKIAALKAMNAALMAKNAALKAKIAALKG

P2-AA = molecular target: T7, P2-AA; experiment: two-hybrid library CCmax; conditions: mean of both orientations
T7 chain: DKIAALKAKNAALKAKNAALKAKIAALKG

P6bH1 = molecular target: T8, P6bH1; experiment: two-hybrid library CCNG1
T8 chain: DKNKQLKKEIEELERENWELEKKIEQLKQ

P7bH1 = molecular target: T9, P7bH1; experiment: two-hybrid library CCNG1
T9 chain: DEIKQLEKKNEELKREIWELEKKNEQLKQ

P1bH1 = molecular target: T10, P1bH1; experiment: two-hybrid library CCNG1
T10 chain: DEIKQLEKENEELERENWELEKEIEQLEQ

P12bH1 = molecular target: T11, P12bH1; experiment: two-hybrid library CCNG1
T11 chain: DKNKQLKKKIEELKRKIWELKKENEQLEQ

P5bH1 = molecular target: T12, P5bH1; experiment: two-hybrid library CCNG1
T12 chain: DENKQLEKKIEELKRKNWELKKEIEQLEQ

P3bH1 = molecular target: T13, P3bH1; experiment: two-hybrid library CCNG1
T13 chain: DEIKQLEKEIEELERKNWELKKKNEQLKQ

P8bH1 = molecular target: T14, P8bH1; experiment: two-hybrid library CCNG1
T14 chain: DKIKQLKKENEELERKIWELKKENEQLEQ

P9bH1 = molecular target: T15, P9bH1; experiment: two-hybrid library CCNG1
T15 chain: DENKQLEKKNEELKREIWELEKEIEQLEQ

P11bH1 = molecular target: T16, P11bH1; experiment: two-hybrid library CCNG1
T16 chain: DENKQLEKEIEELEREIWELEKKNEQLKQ

P2bH1 = molecular target: T17, P2bH1; experiment: two-hybrid library CCNG1
T17 chain: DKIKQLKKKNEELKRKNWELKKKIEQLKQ

P4bH1 = molecular target: T18, P4bH1; experiment: two-hybrid library CCNG1
T18 chain: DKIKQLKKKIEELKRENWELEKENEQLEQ

## DEIAALEAWNAALWAENAALEAEIAALEG [P1-AA-1HGe-W]
P2-AA-1HGe-R
  interaction score: 1.34
P2-AA-1HGe-Q
  interaction score: 1.87
P2-AA-1HGe-D
  interaction score: 1.27
P2-AA-1HGe-A
  interaction score: 1.9
P2-AA-1HGe-T
  interaction score: 2.15
P2-AA-1HGe-M
  interaction score: 2.21
P2-AA
  interaction score: 1.7

## DENKQLEKEIEELEREIWELEKKNEQLKQ [P11bH1]
P6bH1
  interaction score: 0.725
P7bH1
  interaction score: -0.507
P1bH1
  interaction score: -2.02
P12bH1
  interaction score: 0.0252
P5bH1
  interaction score: 1.1
P3bH1
  interaction score: -0.0263
P8bH1
  interaction score: 0.239
P9bH1
  interaction score: -0.076
P11bH1
  interaction score: 0
P2bH1
  interaction score: 1.25
P4bH1
  interaction score: 1.12

## DEIAALEAYNAALYAENAALEAEIAALEG [P1-AA-1HGe-Y]
P2-AA-1HGe-R
  interaction score: 2.01
P2-AA-1HGe-Q
  interaction score: 1.96
P2-AA-1HGe-D
  interaction score: 1.57
P2-AA-1HGe-A
  interaction score: 1.65
P2-AA-1HGe-T
  interaction score: 2.08
P2-AA-1HGe-M
  interaction score: 1.67
P2-AA
  interaction score: 1.87
